Reference: patent publication US20230340112A1

Legend:
[1] = molecular target: mDC cell surface SIRPα (human) (UniProt P78324); assay: FACS binding; Donor #296; isotype control, flat curve
[2] = molecular target: mDC cell surface SIRPα (human) (UniProt P78324); assay: FACS binding; Donor #298; isotype control, flat curve
[3] = molecular target: cell-surface SIRPα (mDC) (human) (UniProt P78324); assay: FACS blocking of CD47/SIRPα; Donor #296; isotype control, flat curve
[4] = molecular target: cell-surface SIRPα (mDC) (human) (UniProt P78324); assay: FACS blocking of CD47/SIRPα; Donor #298; isotype control, flat curve
[5] = molecular target: human SIRPα expressed on the surface of human monocyte-derived dendritic cells (human) (UniProt P78324); assay: flow cytometry on human monocyte-derived dendritic cells
human SIRPα expressed on the surface of human monocyte-derived dendritic cells (human), sequence (P78324 31-504): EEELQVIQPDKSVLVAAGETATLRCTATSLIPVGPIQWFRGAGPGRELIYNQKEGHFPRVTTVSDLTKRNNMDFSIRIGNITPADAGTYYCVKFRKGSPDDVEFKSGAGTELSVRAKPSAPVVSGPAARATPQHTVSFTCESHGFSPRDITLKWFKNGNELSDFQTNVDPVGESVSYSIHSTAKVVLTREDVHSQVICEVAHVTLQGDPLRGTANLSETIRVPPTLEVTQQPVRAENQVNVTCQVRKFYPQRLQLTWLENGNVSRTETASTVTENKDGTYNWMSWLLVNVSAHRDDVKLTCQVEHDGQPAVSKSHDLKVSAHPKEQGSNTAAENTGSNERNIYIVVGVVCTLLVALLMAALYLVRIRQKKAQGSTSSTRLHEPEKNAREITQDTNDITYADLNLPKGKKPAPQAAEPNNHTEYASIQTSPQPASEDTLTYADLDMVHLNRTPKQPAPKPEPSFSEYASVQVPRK

cell-surface SIRPα (mDC) (human), sequence (P78324 31-504): as above
mDC cell surface SIRPα (human), sequence (P78324 31-504): as above

Substance	EC50 [1]	EC50 [2]	IC50 [3]	IC50 [4]	Kd [5]
IgG4 isotype	38.6 nM	0.025 nM	0.424 nM	0.0177 nM	
IgG4 isotype (antibody)					0.0021 nM
